We go through two molecules from publication PMC1635258.

Read-outs that look alike come from different tables or passages of the source.

In data set [1] the target is T1, hRPA (replication protein A heterotrimer p70/p32/p14) (human, UniProt P27694;P15927;P35244 1-616;1-270;1-121). Nature of the data set: EMSA.
The target in data set [2] is T1, hRPA (replication protein A …). Nature of the data set: EMSA. This is another data set of the same source.

T1 sequence (P27694 whole entry, chain 1 of 3): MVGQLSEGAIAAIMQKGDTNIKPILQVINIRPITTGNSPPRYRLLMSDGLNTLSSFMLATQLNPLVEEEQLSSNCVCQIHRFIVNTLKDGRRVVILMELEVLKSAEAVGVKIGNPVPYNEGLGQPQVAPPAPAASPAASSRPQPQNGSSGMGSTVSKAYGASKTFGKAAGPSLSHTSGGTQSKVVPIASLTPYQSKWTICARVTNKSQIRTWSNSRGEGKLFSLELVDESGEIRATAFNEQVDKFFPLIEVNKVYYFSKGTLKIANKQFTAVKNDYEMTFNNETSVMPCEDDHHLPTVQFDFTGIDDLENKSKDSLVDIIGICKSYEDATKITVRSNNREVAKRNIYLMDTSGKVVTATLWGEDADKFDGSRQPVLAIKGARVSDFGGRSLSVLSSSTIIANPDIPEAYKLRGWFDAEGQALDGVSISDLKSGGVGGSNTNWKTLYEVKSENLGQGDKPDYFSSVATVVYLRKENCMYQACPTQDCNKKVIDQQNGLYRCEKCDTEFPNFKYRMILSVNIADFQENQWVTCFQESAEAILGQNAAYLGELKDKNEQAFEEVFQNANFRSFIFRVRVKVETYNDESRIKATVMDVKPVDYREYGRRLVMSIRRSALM
T1 sequence (P15927 whole entry, chain 2 of 3): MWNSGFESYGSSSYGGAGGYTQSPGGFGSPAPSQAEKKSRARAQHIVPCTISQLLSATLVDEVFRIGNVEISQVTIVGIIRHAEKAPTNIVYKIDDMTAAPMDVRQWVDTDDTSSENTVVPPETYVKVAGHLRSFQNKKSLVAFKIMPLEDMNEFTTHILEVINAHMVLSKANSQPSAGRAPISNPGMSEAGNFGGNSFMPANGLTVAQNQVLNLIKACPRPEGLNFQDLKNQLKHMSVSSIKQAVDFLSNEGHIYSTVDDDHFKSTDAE
T1 sequence (P35244 whole entry, chain 3 of 3): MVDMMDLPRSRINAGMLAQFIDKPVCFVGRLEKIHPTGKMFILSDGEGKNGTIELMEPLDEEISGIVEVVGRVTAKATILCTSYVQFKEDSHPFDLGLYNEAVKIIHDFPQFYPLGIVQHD

B1: htelo (structured_DNA)
DNA: GGGTTAGGGTTAGGGTTAGGG
On to B1, for which the binding result in data set [1] is “binds”.

B2: T21 (ssDNA)
DNA: TTTTTTTTTTTTTTTTTTTTT
Take B2: the binding result in data set [2] is “binds”.
